# Measurements as given in patent publication US7119182 (University of California, dated 2006).
# Square brackets hold non-standard residues; d marks the D form. Ends that are not written are not given here. Cha = N[C@@H](CC1CCCCC1)C(=O)O; Mpa = O=C(O)CCS
# B1: Mpr-F(Cha) (Cha)RNPND-NH2 (peptide)
# peptide: [Mpa]F[Cha][Cha]RNPND-NH2
# SMILES: N=C(N)NCCC[C@H](NC(=O)[C@H](CC1CCCCC1)NC(=O)[C@H](CC1CCCCC1)NC(=O)[C@H](Cc1ccccc1)NC(=O)CCS)C(=O)N[C@@H](CC(N)=O)C(=O)N1CCC[C@H]1C(=O)N[C@@H](CC(N)=O)C(=O)N[C@@H](CC(=O)O)C(N)=O
# B2: Mpr-F(Cha) (Cha)RAPNDK-NH2 (peptide)
# peptide: [Mpa]F[Cha][Cha]RAPNDK-NH2
# SMILES: C[C@H](NC(=O)[C@H](CCCNC(=N)N)NC(=O)[C@H](CC1CCCCC1)NC(=O)[C@H](CC1CCCCC1)NC(=O)[C@H](Cc1ccccc1)NC(=O)CCS)C(=O)N1CCC[C@H]1C(=O)N[C@@H](CC(N)=O)C(=O)N[C@@H](CC(=O)O)C(=O)N[C@@H](CCCCN)C(N)=O
# B3: Mpr-F(Cha) (Cha)RNPNDK (peptide)
# peptide: [Mpa]F[Cha][Cha]RNPNDK-OH
# SMILES: N=C(N)NCCC[C@H](NC(=O)[C@H](CC1CCCCC1)NC(=O)[C@H](CC1CCCCC1)NC(=O)[C@H](Cc1ccccc1)NC(=O)CCS)C(=O)N[C@@H](CC(N)=O)C(=O)N1CCC[C@H]1C(=O)N[C@@H](CC(N)=O)C(=O)N[C@@H](CC(=O)O)C(=O)N[C@@H](CCCCN)C(=O)O
# B4: Mpr-F(Cha) (Cha)RNPNAK-NH2 (peptide)
# peptide: [Mpa]F[Cha][Cha]RNPNAK-NH2
# SMILES: C[C@H](NC(=O)[C@H](CC(N)=O)NC(=O)[C@@H]1CCCN1C(=O)[C@H](CC(N)=O)NC(=O)[C@H](CCCNC(=N)N)NC(=O)[C@H](CC1CCCCC1)NC(=O)[C@H](CC1CCCCC1)NC(=O)[C@H](Cc1ccccc1)NC(=O)CCS)C(=O)N[C@@H](CCCCN)C(N)=O
# B5: Mpr-F(Cha) (Cha)RFPNDK-NH2 (peptide)
# peptide: [Mpa]F[Cha][Cha]RFPNDK-NH2
# SMILES: N=C(N)NCCC[C@H](NC(=O)[C@H](CC1CCCCC1)NC(=O)[C@H](CC1CCCCC1)NC(=O)[C@H](Cc1ccccc1)NC(=O)CCS)C(=O)N[C@@H](Cc1ccccc1)C(=O)N1CCC[C@H]1C(=O)N[C@@H](CC(N)=O)C(=O)N[C@@H](CC(=O)O)C(=O)N[C@@H](CCCCN)C(N)=O
# B6: Mpr-F(Cha) (Cha)RNANDK-NH2 (peptide)
# peptide: [Mpa]F[Cha][Cha]RNANDK-NH2
# SMILES: C[C@H](NC(=O)[C@H](CC(N)=O)NC(=O)[C@H](CCCNC(=N)N)NC(=O)[C@H](CC1CCCCC1)NC(=O)[C@H](CC1CCCCC1)NC(=O)[C@H](Cc1ccccc1)NC(=O)CCS)C(=O)N[C@@H](CC(N)=O)C(=O)N[C@@H](CC(=O)O)C(=O)N[C@@H](CCCCN)C(N)=O
# B7: Mpr-F(Cha) (Cha)RNPNDKYE-NH2 (peptide)
# peptide: [Mpa]F[Cha][Cha]RNPNDKYE-NH2
# SMILES: N=C(N)NCCC[C@H](NC(=O)[C@H](CC1CCCCC1)NC(=O)[C@H](CC1CCCCC1)NC(=O)[C@H](Cc1ccccc1)NC(=O)CCS)C(=O)N[C@@H](CC(N)=O)C(=O)N1CCC[C@H]1C(=O)N[C@@H](CC(N)=O)C(=O)N[C@@H](CC(=O)O)C(=O)N[C@@H](CCCCN)C(=O)N[C@@H](Cc1ccc(O)cc1)C(=O)N[C@@H](CCC(=O)O)C(N)=O
# B8: Mpr-F(Cha) (Cha)RNPNDA-NH2 (peptide)
# peptide: [Mpa]F[Cha][Cha]RNPNDA-NH2
# SMILES: C[C@H](NC(=O)[C@H](CC(=O)O)NC(=O)[C@H](CC(N)=O)NC(=O)[C@@H]1CCCN1C(=O)[C@H](CC(N)=O)NC(=O)[C@H](CCCNC(=N)N)NC(=O)[C@H](CC1CCCCC1)NC(=O)[C@H](CC1CCCCC1)NC(=O)[C@H](Cc1ccccc1)NC(=O)CCS)C(N)=O
# B9: Mpr-F(Cha) (Cha)RN-NH2 (peptide)
# peptide: [Mpa]F[Cha][Cha]RN-NH2
# SMILES: N=C(N)NCCC[C@H](NC(=O)[C@H](CC1CCCCC1)NC(=O)[C@H](CC1CCCCC1)NC(=O)[C@H](Cc1ccccc1)NC(=O)CCS)C(=O)N[C@@H](CC(N)=O)C(N)=O
# B10: Mpr-F(Cha) (Cha)RNPADK-NH2 (peptide)
# peptide: [Mpa]F[Cha][Cha]RNPADK-NH2
# SMILES: C[C@H](NC(=O)[C@@H]1CCCN1C(=O)[C@H](CC(N)=O)NC(=O)[C@H](CCCNC(=N)N)NC(=O)[C@H](CC1CCCCC1)NC(=O)[C@H](CC1CCCCC1)NC(=O)[C@H](Cc1ccccc1)NC(=O)CCS)C(=O)N[C@@H](CC(=O)O)C(=O)N[C@@H](CCCCN)C(N)=O
# B11: Mpr-F(Cha) (Cha)RNPNDK-NH2 (peptide)
# peptide: [Mpa]F[Cha][Cha]RNPNDK-NH2
# SMILES: N=C(N)NCCC[C@H](NC(=O)[C@H](CC1CCCCC1)NC(=O)[C@H](CC1CCCCC1)NC(=O)[C@H](Cc1ccccc1)NC(=O)CCS)C(=O)N[C@@H](CC(N)=O)C(=O)N1CCC[C@H]1C(=O)N[C@@H](CC(N)=O)C(=O)N[C@@H](CC(=O)O)C(=O)N[C@@H](CCCCN)C(N)=O
# B12: Mpr-F(Cha) (Cha)RGPNDK-NH2 (peptide)
# peptide: [Mpa]F[Cha][Cha]RGPNDK-NH2
# SMILES: N=C(N)NCCC[C@H](NC(=O)[C@H](CC1CCCCC1)NC(=O)[C@H](CC1CCCCC1)NC(=O)[C@H](Cc1ccccc1)NC(=O)CCS)C(=O)NCC(=O)N1CCC[C@H]1C(=O)N[C@@H](CC(N)=O)C(=O)N[C@@H](CC(=O)O)C(=O)N[C@@H](CCCCN)C(N)=O
# B13: Mpr-F(Cha) (Cha)RNPNDKY-NH2 (peptide)
# peptide: [Mpa]F[Cha][Cha]RNPNDKY-NH2
# SMILES: N=C(N)NCCC[C@H](NC(=O)[C@H](CC1CCCCC1)NC(=O)[C@H](CC1CCCCC1)NC(=O)[C@H](Cc1ccccc1)NC(=O)CCS)C(=O)N[C@@H](CC(N)=O)C(=O)N1CCC[C@H]1C(=O)N[C@@H](CC(N)=O)C(=O)N[C@@H](CC(=O)O)C(=O)N[C@@H](CCCCN)C(=O)N[C@@H](Cc1ccc(O)cc1)C(N)=O
# B14: SF(Cha) (Cha)RK-NH2 (peptide)
# peptide: SF[Cha][Cha]RK-NH2
# modifications: N-terminus assumed
# SMILES: N=C(N)NCCC[C@H](NC(=O)[C@H](CC1CCCCC1)NC(=O)[C@H](CC1CCCCC1)NC(=O)[C@H](Cc1ccccc1)NC(=O)[C@@H](N)CO)C(=O)N[C@@H](CCCCN)C(N)=O
# B15: SF(Cha) (Cha)RN-NH2 (peptide)
# peptide: SF[Cha][Cha]RN-NH2
# modifications: N-terminus assumed
# SMILES: N=C(N)NCCC[C@H](NC(=O)[C@H](CC1CCCCC1)NC(=O)[C@H](CC1CCCCC1)NC(=O)[C@H](Cc1ccccc1)NC(=O)[C@@H](N)CO)C(=O)N[C@@H](CC(N)=O)C(N)=O
# B16: SFF(Cha)RA-NH2 (peptide)
# peptide: SFF[Cha]RA-NH2
# modifications: N-terminus assumed
# SMILES: C[C@H](NC(=O)[C@H](CCCNC(=N)N)NC(=O)[C@H](CC1CCCCC1)NC(=O)[C@H](Cc1ccccc1)NC(=O)[C@H](Cc1ccccc1)NC(=O)[C@@H](N)CO)C(N)=O
# Molecular target: T1, human thrombin receptor (human, UniProt P25116 42-425)
# T1 chain: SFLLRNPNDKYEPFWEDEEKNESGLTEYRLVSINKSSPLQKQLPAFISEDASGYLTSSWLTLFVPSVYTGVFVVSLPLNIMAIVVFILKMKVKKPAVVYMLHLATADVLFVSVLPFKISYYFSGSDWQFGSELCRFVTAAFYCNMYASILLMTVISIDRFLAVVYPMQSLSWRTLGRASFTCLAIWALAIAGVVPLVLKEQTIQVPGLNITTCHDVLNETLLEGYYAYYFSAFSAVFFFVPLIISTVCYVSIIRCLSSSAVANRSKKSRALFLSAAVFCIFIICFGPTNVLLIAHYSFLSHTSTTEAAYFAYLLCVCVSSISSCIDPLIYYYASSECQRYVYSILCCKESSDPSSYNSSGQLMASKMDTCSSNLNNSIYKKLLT
# Test: cell-based or functional assay
row,Binder,IC50 (50% inhibition of thrombin-induced platelet activation or aggregation) [µM]
1,[Mpa]FLLRNPNC-NH2 (cysteine pairing not given here) [Mpr-FLLRNPNC-NH2],400
2,B1,50
3,B2,40
4,B3,30
5,B4,> 100
6,B5,> 100
7,B6,75
8,B7,80
9,[Mpa]F[Cha][Cha]RKPNEK-NH2 [Mpr-P(Cha) (Cha)RKPNEK-NH2],10
10,[Mpa]F[Cha][Cha]RKPNDK-NH2 [Mpr-F(Cha) (Cha)RKPNDK-NH2],5
11,B8,50
12,[Mpa]F[Cha][Cha]RNPNDKY [Mpr-F(Cha) (Cha)RNPNDKY],40
13,B9,100
14,B10,75
15,B11,25
16,B12,20
17,B13,75

# Molecular target: T1, human thrombin receptor
# Test: cell-based or functional assay
# Remark: another data set of the same source
row,Binder,"EC50 (concentration required to elicit a 50% maximal aggregation), platelet aggregation [µM]"
1,SFLLA-NH2 [SFLLA-NH2],137
2,SF[Cha][Cha]LRNPNDK [SF(Cha) (Cha)LRNPNDK],5.4
3,SFLLLN-NH2 [SFLLLN-NH2],44.9
4,B14,0.82
5,B15,1.1
6,SFLLX (D-Arg at position 5; C-terminal amide (NH2)) [SFLL(D-Arg)-NH2],594
7,SFLLQN-NH2 [SFLLQN-NH2],20.2
8,SFLLKN-NH2 [SFLLKN-NH2],11.1
9,B16,1.4
